The results in this text go back to paper PMC7268246, “Purification and immobilization of engineered glucose dehydrogenase: a new approach to producing gluconic acid from breadwaste” (Biotechnology for Biofuels, 2020).

Broadly, the stoichiometry N is a count of units in the complex or per binding partner.

This data set deals with the molecule itself. Description: SEC; Superdex Increase 10x300GL column on an ÄKTA Pure system; Ni-NTA purified GDH dialysed into 100 mM HEPES pH 7.4, 200 mM MgCl2, 10% glycerol; run in one buffer only.

B1: recombinant glucose dehydrogenase (GDH) from Sulfolobus solfataricus (enzyme, UniProt O93715 1-366, looked up)
chain: MKAIIVKPPNAGVQVKDVDEKKLDSYGKIKIRTIYNGICGTDREIVNGKLTLSTLPKGKDFLVLGHEAIGVVEESYHGFSQGDLVMPVNRRGCGICRNCLVGRPDFCETGEFGEAGIHKMDGFMREWWYDDPKYLVKIPKSIEDIGILAQPLADIEKSIEEILEVQKRVPVWTCDDGTLNCRKVLVVGTGPIGVLFTLLFRTYGLEVWMANRREPTEVEQTVIEETKTNYYNSSNGYDKLKDSVGKFDVIIDATGADVNILGNVIPLLGRNGVLGLFGFSTSGSVPLDYKTLQEIVHTNKTIIGLVNGQKPHFQQAVVHLASWKTLYPKAAKMLITKTVSINDEKELLKVLREKEHGEIKIRILWE
notes: glucose dehydrogenase (GDH) of Sulfolobus solfataricus; the discussion gives the monomer as 366 amino acid residues (41 kDa); the tagged construct has 43 kDa; also called engineered GDH; recombinant GDH; source: E. coli BL21-DE3 (pET30a), lysate heat treated at 70 °C, purified (Ni-NTA, dialysis, size exclusion chromatography)
With B1, the “stoichiometry N” value came to 4.
